According to the Human Domainome abundance scans (Beltran et al. 2025):
± gives the uncertainty stated by the source.

B1: Homeobox protein cut-like 1, residues 548 to 629; numbered along this chain, P39880 (parent)
chain: GEEMDTAEIARQVKEQLIKHNIGQRIFGHYVLGLSQGSVSEILARPKPWNKLTVRGKEPFHKMKQFLSDEQNILALRSIQGR

Variants of: B1
Test: abundance fitness (aPCA) (normalised: wild type 0, dead -1); higher = more abundant; growth selection in yeast, the domain comes from the species named
Conditions: Homo sapiens
With S38F the abundance fitness was -0.181 ± 0.071. Work on S38E yielded an abundance fitness of 0.141 ± 0.026. Work on S38G yielded an abundance fitness of -0.049 ± 0.022. S38M showed an abundance fitness of 0.11 ± 0.034. S38W showed an abundance fitness of -0.273 ± 0.035. S38V gave an abundance fitness of 0.097 ± 0.026. For S38R, the abundance fitness was -0.711 ± 0.038. With S38P the abundance fitness was -0.079 ± 0.032. S38T gave an abundance fitness of -0.005 ± 0.031. With L74M the abundance fitness was -0.074 ± 0.041. In the case of L74G, the abundance fitness is reported as -0.159 ± 0.026. Variant L74Y has an abundance fitness of -0.112 ± 0.054. L74S showed an abundance fitness of -0.083 ± 0.032. F66M gave an abundance fitness of -0.648 ± 0.054. In the case of F66K, the abundance fitness is reported as -0.829 ± 0.063. In the case of F66I, the abundance fitness is reported as -0.573 ± 0.13. For F66L, the abundance fitness was -0.662 ± 0.046. M4A gave an abundance fitness of -0.432 ± 0.036. Variant M4F has an abundance fitness of -0.244 ± 0.072. Work on M4L yielded an abundance fitness of 0.002 ± 0.03. Work on M4N yielded an abundance fitness of -0.331 ± 0.056. S35R showed an abundance fitness of -0.209 ± 0.026. Work on S35L yielded an abundance fitness of -0.384 ± 0.036. With S35Y the abundance fitness was -0.298 ± 0.08. With K14R the abundance fitness was -0.111 ± 0.099. For K14L, the abundance fitness was -0.401 ± 0.17. K64S showed an abundance fitness of -0.154 ± 0.035. Work on K64Y yielded an abundance fitness of -0.112 ± 0.085. K64C showed an abundance fitness of -0.273 ± 0.056. K64A gave an abundance fitness of -0.028 ± 0.029. K64M showed an abundance fitness of -0.061 ± 0.037. Variant K64R has an abundance fitness of -0.049 ± 0.024. Work on K64V yielded an abundance fitness of -0.023 ± 0.029. Work on Q80C yielded an abundance fitness of -0.028 ± 0.049. Work on Q80T yielded an abundance fitness of -0.095 ± 0.038. Work on Q80Y yielded an abundance fitness of -0.188 ± 0.055. Variant Q80M has an abundance fitness of -0.079 ± 0.038. Q80D showed an abundance fitness of -0.089 ± 0.056. For Q80L, the abundance fitness was -0.126 ± 0.035. Work on Q80K yielded an abundance fitness of -0.12 ± 0.039. With H29M the abundance fitness was -0.052 ± 0.037. For H29R, the abundance fitness was -0.051 ± 0.024. For I9K, the abundance fitness was -0.508 ± 0.046. Variant I9L has an abundance fitness of -0.13 ± 0.031. For I9S, the abundance fitness was -0.672 ± 0.051. With I9F the abundance fitness was -0.547 ± 0.11. For I9C, the abundance fitness was -0.459 ± 0.055. I9Y gave an abundance fitness of -0.495 ± 0.1. In the case of I9H, the abundance fitness is reported as -0.56 ± 0.1. I42T gave an abundance fitness of -0.375 ± 0.05. In the case of I42E, the abundance fitness is reported as -0.707 ± 0.046. Work on I42Q yielded an abundance fitness of -0.564 ± 0.06. Work on E58R yielded an abundance fitness of -0.273 ± 0.026. In the case of E58G, the abundance fitness is reported as -0.35 ± 0.026. E58A showed an abundance fitness of -0.168 ± 0.03. Variant E58V has an abundance fitness of -0.062 ± 0.03. With E58Q the abundance fitness was -0.047 ± 0.034. E58P showed an abundance fitness of -0.819 ± 0.087. In the case of V54Q, the abundance fitness is reported as 0.064 ± 0.052. Variant V54D has an abundance fitness of 0.052 ± 0.047. With V54R the abundance fitness was -0.028 ± 0.041. In the case of S40C, the abundance fitness is reported as -0.063 ± 0.041. For S40E, the abundance fitness was 0.13 ± 0.028. For S40I, the abundance fitness was -0.117 ± 0.081. In the case of S40W, the abundance fitness is reported as -0.131 ± 0.031. Work on S40F yielded an abundance fitness of -0.162 ± 0.082. For S40M, the abundance fitness was -0.051 ± 0.038. Variant P59M has an abundance fitness of 0.078 ± 0.04. For P59C, the abundance fitness was 0.1 ± 0.058. P59K showed an abundance fitness of -0.034 ± 0.037. P59A gave an abundance fitness of 0.091 ± 0.031. P59Y gave an abundance fitness of 0.025 ± 0.068. Work on I26C yielded an abundance fitness of -0.058 ± 0.044. With I26Y the abundance fitness was -0.107 ± 0.065. I26H showed an abundance fitness of -0.056 ± 0.056. Work on I26L yielded an abundance fitness of -0.002 ± 0.03. D5P showed an abundance fitness of -0.269 ± 0.043. D5H showed an abundance fitness of -0.294 ± 0.067. In the case of L17R, the abundance fitness is reported as -0.609 ± 0.031. With L17S the abundance fitness was -0.635 ± 0.045. Work on L17D yielded an abundance fitness of -0.774 ± 0.093. For L17F, the abundance fitness was -0.808 ± 0.18. For L17Y, the abundance fitness was -0.842 ± 0.21. In the case of L17Q, the abundance fitness is reported as -0.612 ± 0.058. For F60D, the abundance fitness was -0.803 ± 0.11. With F60A the abundance fitness was -0.944 ± 0.064. Variant F60M has an abundance fitness of -0.536 ± 0.057. In the case of F60I, the abundance fitness is reported as -0.306 ± 0.12. Work on F60P yielded an abundance fitness of -0.897 ± 0.091. In the case of F60W, the abundance fitness is reported as 0.035 ± 0.04. Variant I22D has an abundance fitness of -0.941 ± 0.12. I22V gave an abundance fitness of -0.071 ± 0.03. I22S showed an abundance fitness of -0.801 ± 0.059. I22Q showed an abundance fitness of -0.797 ± 0.067. Variant I22F has an abundance fitness of -0.49 ± 0.15. In the case of G81E, the abundance fitness is reported as 0.105 ± 0.048. G81K gave an abundance fitness of -0.068 ± 0.054. G81I showed an abundance fitness of 0.008 ± 0.057. G56V gave an abundance fitness of -0.343 ± 0.029. For G56T, the abundance fitness was -0.333 ± 0.042. G56S gave an abundance fitness of -0.254 ± 0.032. For G56P, the abundance fitness was -0.697 ± 0.069. Variant T53P has an abundance fitness of -0.254 ± 0.046. For R11K, the abundance fitness was 0.069 ± 0.063. With R11N the abundance fitness was -0.205 ± 0.083. Work on R11A yielded an abundance fitness of -0.157 ± 0.058. Work on A75F yielded an abundance fitness of -0.066 ± 0.061. A75K showed an abundance fitness of 0.095 ± 0.04. Work on A75V yielded an abundance fitness of -0.127 ± 0.033. With A75Q the abundance fitness was 0.038 ± 0.047. Variant V13N has an abundance fitness of -0.511 ± 0.054. In the case of V13G, the abundance fitness is reported as -0.53 ± 0.044. In the case of V13K, the abundance fitness is reported as -0.548 ± 0.067. V13T showed an abundance fitness of -0.198 ± 0.039. In the case of V13R, the abundance fitness is reported as -0.586 ± 0.041. For V13C, the abundance fitness was -0.238 ± 0.045. Work on V39W yielded an abundance fitness of -0.33 ± 0.038. With V39S the abundance fitness was -0.316 ± 0.037. In the case of V39M, the abundance fitness is reported as -0.249 ± 0.039. For V39T, the abundance fitness was 0.086 ± 0.033. In the case of V39C, the abundance fitness is reported as -0.025 ± 0.046. V39A showed an abundance fitness of -0.177 ± 0.028. For V39D, the abundance fitness was -0.732 ± 0.078. With V39Q the abundance fitness was -0.676 ± 0.062. V39I gave an abundance fitness of -0.212 ± 0.067. V39N showed an abundance fitness of -0.697 ± 0.14. For T6G, the abundance fitness was -0.946 ± 0.043. For T6R, the abundance fitness was -0.896 ± 0.041. Variant T6I has an abundance fitness of -1.14 ± 0.19. Variant T6V has an abundance fitness of -0.839 ± 0.049. With D69T the abundance fitness was -0.181 ± 0.044. D69F showed an abundance fitness of -0.252 ± 0.068. K62C showed an abundance fitness of -0.413 ± 0.062. Work on K62I yielded an abundance fitness of -0.16 ± 0.068. In the case of K47R, the abundance fitness is reported as -0.072 ± 0.025. Work on K47D yielded an abundance fitness of -0.08 ± 0.044. Work on K47F yielded an abundance fitness of -0.338 ± 0.071. K47H showed an abundance fitness of -0.276 ± 0.068. In the case of K47Y, the abundance fitness is reported as -0.432 ± 0.082. A44I showed an abundance fitness of -0.159 ± 0.055. Variant A44W has an abundance fitness of -0.176 ± 0.032. With A44C the abundance fitness was -0.134 ± 0.047. Variant A44P has an abundance fitness of -0.709 ± 0.06. In the case of V31Q, the abundance fitness is reported as -0.882 ± 0.071. In the case of V31C, the abundance fitness is reported as -0.179 ± 0.049. L76T showed an abundance fitness of -0.752 ± 0.086. Work on L76S yielded an abundance fitness of -0.697 ± 0.056. E2D gave an abundance fitness of -0.154 ± 0.05. Variant E2L has an abundance fitness of -0.193 ± 0.036. Work on E2C yielded an abundance fitness of -0.137 ± 0.056. E2Y showed an abundance fitness of -0.175 ± 0.066. For E2V, the abundance fitness was -0.17 ± 0.028. Work on S78T yielded an abundance fitness of 0.005 ± 0.04. Work on S78E yielded an abundance fitness of 0.087 ± 0.034. Variant S78V has an abundance fitness of -0.139 ± 0.03. S78K gave an abundance fitness of 0.044 ± 0.04. L43A showed an abundance fitness of -0.772 ± 0.043. With L43G the abundance fitness was -0.929 ± 0.043. With L43N the abundance fitness was -1 ± 0.16. E41F gave an abundance fitness of -0.758 ± 0.14. For E41Y, the abundance fitness was -0.412 ± 0.083. With E41M the abundance fitness was -0.377 ± 0.048. In the case of E41R, the abundance fitness is reported as -0.851 ± 0.047. Work on E41A yielded an abundance fitness of -0.13 ± 0.029. K51G gave an abundance fitness of -0.198 ± 0.05. Work on K51M yielded an abundance fitness of -0.011 ± 0.066. In the case of K51V, the abundance fitness is reported as 0.053 ± 0.048.
